Patent publication US20060198894A1, “Stabilized, solid-state polypeptide particles” (priority 2002, published 2006)
Where no end group is shown, it is not given here.

Legend:
Assay type in all cases: physicochemical
[1] = Stability of solid-state PACAP particles stored at 60° C. for two months, RP-HPLC (recovery / total degradation)
Method: (§1) The effect of pH on the stability of PACAP molecules over time was evaluated. In order to make such an evaluation, PACAP raw material was first dissolved in H2O in three different solutions, with the first solution having a pH of 2, the second solution having a pH of 4, and the third solution having a pH of 6. The pH of each solution was adjusted to the desired value using diluted HCl. Each of the three solutions was placed in lyophilization vials, and solid-state PACAP particles were produced from each of the three solutions through the lyophilization process already described herein. Particles from each of the three solutions were then stored for two months at 60° C., and the stability of the PACAP included in the solid-state particles was thereafter evaluated using RP-HPLC and SEC.
(§2) Solid-state PACAP particles were prepared from each of the eight solutions through lyophilization, as has already been described, and solid-state PACAP particles produced from each of the eight solutions were then stored at 60° C. for two months. After exposing the various solid-state PACAP particles to a temperature of 60° C. over two months, the stability of the PACAP included in various particles was evaluated using RP HPLC and SEC processes.
PACAP particles containing histidine buffer (Sigma) and PACAP particles containing histidine buffer in combination with calcium chloride (CaCl2, J T Baker), sucrose and sodium dodecyl sulfate (SDS, Pierce) were prepared and the stabilization of PACAP provided by such particles was evaluated. To prepare the PACAP particles evaluated, six different aqueous solutions were prepared. Each solution included a desired amount of PACAP dissolved therein, and the pH of each of the six solutions prepared was adjusted to 6 by the addition of diluted HCl. The first aqueous solution was prepared without additives (histidine buffer, CaCl2, sucrose, or SDS). The second aqueous solution was prepared with a 10 mM concentration of histidine buffer. The third aqueous solution was formulated with a 10 mM concentration of histidine buffer as well as a 10 mM concentration of CaCl2. The fourth aqueous solution was formulated with a 10 mM concentration of histidine buffer and included sucrose at a 0.5/1 weight ratio (sucrose/PACAP) relative to PACAP. […] The PACAP particles produced from each solution were then stored at 60° C. for two months, and the stability of the PACAP contained within the various different particles was evaluated using RP-HPLC and SEC processes after such storage. […]
To evaluate the stabilizing effect of CaCl2 in PACAP particles prepared at acidic and near neutral pH, four different types of particles were formulated, stored at 60° C. for two months, and then analyzed for PACAP degradation. […]

[2] = Aggregation / dimer formation in solid-state PACAP particles stored at 60° C. for two months, SEC; conditions: for dimer formation: two months of storage at 60° C.
Method: as §1, §2
PACAP particles containing histidine buffer (Sigma) and PACAP particles containing histidine buffer in combination with calcium chloride (CaCl2, J T Baker), sucrose and sodium dodecyl sulfate (SDS, Pierce) were prepared and the stabilization of PACAP provided by such particles was evaluated. To prepare the PACAP particles evaluated, six different aqueous solutions were prepared. Each solution included a desired amount of PACAP dissolved therein, and the pH of each of the six solutions prepared was adjusted to 6 by the addition of diluted HCl. The first aqueous solution was prepared without additives (histidine buffer, CaCl2, sucrose, or SDS). The second aqueous solution was prepared with a 10 mM concentration of histidine buffer. The third aqueous solution was formulated with a 10 mM concentration of histidine buffer as well as a 10 mM concentration of CaCl2. The fourth aqueous solution was formulated with a 10 mM concentration of histidine buffer and included sucrose at a 0.5/1 weight ratio (sucrose/PACAP) relative to PACAP. The fifth aqueous solution was prepared with a 10 mM concentration of histidine buffer, a 10 mM concentration of CaCl2, and an amount of sucrose providing a 0.5/1 weight ratio (sucrose/PACAP) relative to PACAP. The sixth aqueous solution was formulated with a 10 mM concentration of histidine buffer and 0.02 wt % SDS. Solid-state PACAP particles were then produced from each of the six solutions using the lyophilization process already described herein. The PACAP particles produced from each solution were then stored at 60° C. for two months, and the stability of the PACAP contained within the various different particles was evaluated using RP-HPLC and SEC processes after such storage. […] In addition, sucrose, CaCl2 and SDS further stabilized the peptide, providing roughly 14 fold to 20 fold decreases in aggregate formation.
To evaluate the stabilizing effect of CaCl2 in PACAP particles prepared at acidic and near neutral pH, four different types of particles were formulated, stored at 60° C. for two months, and then analyzed for PACAP degradation. The four different particle formulations were prepared from four different aqueous solutions. Each of the four solutions included a desired amount of PACAP dissolved therein and the pH of each solution was adjusted to the desired level using diluted HCl. The first aqueous solution was formulated without additives (histidine or CaCl2), and the pH of the first solution was adjusted to 2. The second aqueous solution was formulated with a 10 mM concentration of CaCl2, and the pH of the second solution was adjusted to 2. […]

[3] = Stability of PACAP suspended in suspension vehicles at elevated temperature, RP-HPLC and SEC
Text: Due to the nature of the suspension vehicles used in implantable drug delivery systems, mixing of the suspension formulation bulk and subsequent loading of the suspension formulation into the implantable systems are often conducted at elevated temperatures. To evaluate the stability of PACAP analog (or simply “PACAP”) suspended in various suspension vehicles at elevated temperatures, unprotected, lyophilized PACAP was suspended in four different suspension vehicles (LL/GML/PVP, BA/PVP, EHL/PVP, and PEG/PVP). To suspend the PACAP into the suspension vehicles 3.3 mg PACAP acetate was manually mixed into each of the different suspensions to achieve a PACAP content of approximately 3%. The stability of the PACAP suspension formulations was then evaluated after incubation at 65° C. for four hours.
The PACAP suspensions were then further incubated at 37° C. and 65° C. an additional 17 days. […] (Table 3). […] In addition, other chemical degradation contributed to the loss of lyophilized PACAP.

[4] = Total degradation of lyophilized PACAP with excipients stored at 2-8, 40 and 60° C. up to 3 months, RP-HPLC
Method: (§3) The preliminary findings from the processing study led to the evaluation of the stabilization effect of sugar (sucrose) and nonionic surfactant (Tween 80) on PACAP lyophiles and suspensions. In order to carry out the evaluation, samples were prepared with PACAP in 10 mM NH4OAc (pH6.4) at 3 levels of Tween 80 (0, 0.05, 0.2 wt %) and sucrose (0, 0.5/1, 1/1, w/w). A solution of PACAP in 10 mM of histidine (pH 6.4) and sodium succinate (pH 5.6) was also prepared. Each of the PACAP solutions were lyophilized to obtain reconstituted, solid-state PACAP particles, and individual vials were provided 3.3 mg samples of the material reconstituted from each of the solutions, with the samples containing (1) no additive, (2) 0.2 wt % Tween 80, (3) 0.2 wt % Tween 80+0.5:1, w/w sucrose, and (4) 1:1, w/w sucrose. The various 3.3 mg samples were manually mixed with LL/GML/PVP and BA/PVP to provide suspension formulations having about 3% PACAP content, and the suspension formulations were subjected to 4 hours of incubation at 65° C. After the initial incubation period, the various suspension formulations were stored as described below and evaluated by RP-HPLC and SEC.
(§4) Solid-state PACAP particles were prepared via a lyophilization process (FTS Duro stop) from three different polypeptide solutions prepared in NH4OAc buffer at pH6. Each of the three different solutions contained a different amount of sucrose, with the first containing no sucrose, the second containing a weight ratio of sucrose to PACAP of 0.5/1, and the third containing a weight ratio of sucrose to PACAP 1/1. Solid-state PACAP particles prepared from each of the three solutions were stored at control temperatures ranging from 2° C. to 8° C., a temperature approximating physiologic temperature (40° C.), and a temperature exceeding physiologic temperature (60° C.). The stability of the PACAP contained within each group of solid-state PACAP particles was assessed at 24 days and 3 months. To assess PACAP stability within each group of particles, the particles were reconstituted in water and analyzed by reversed-phase RP-HPLC (acetonitrile gradient elution with mobile phase containing 0.1% trifluoroacetic acid, and a UV detection at 214 nm) and size exclusion HPLC (SEC, isocratic elution, 30% acetonitrile mixed with 70% of aqueous solution containing 0.1% trifluoroacetic acid and 200 mM of sodium chloride, and a UV detection at 220 nm).

[5] = Aggregation of lyophilized PACAP and PACAP suspensions with excipients stored at 2-8, 40 and 60° C. up to 3 months, SEC
Method: as §3, §4

[6] = Example 2 lyophilized formulations, except samples containing 1:1 w/w sucrose
[7] = lyophilized PACAP, ammonium acetate app. pH 6.4, 40° C. for 3 months (FIG. 1)

## PACAP analog: synthetic PACAP-R3 agonist analog manufactured by Bayer; 31 amino acid sequence HSDAVFTDNYTRLRKQVAAKKYLQSIKNKRY (SEQ. I.D. NO. 1) (HSDAVFTDNYTRLRKQVAAKKYLQSIKNKRY; ends and bridges not checked)
[1]; particles lyophilized at pH 2, 4, 6 (HCl), two months at 60° C. (FIG. 9)
  effect of acidic pH on stability: greatly improved stability
[1]; particles prepared at pH2, relative to pH2 without stabilizing sugar, 60° C. for two months
  effect of trehalose and methyl MP on stability: additive stability
[1]; particles prepared at pH2 with sucrose, 60° C. for two months
  effect of sucrose on stability: significant destabilizing effect
[1]; particles with 10 mM CaCl2 at both pH 2 and 6, 60° C. for two months
  effect of CaCl2 on stability: further improved the stability
[2]; particles at acidic pH with Ca2+/PACAP analog 4/1 molar ratio
  dimer formation: 0.8%
[2]; particles at acidic pH with trehalose/PACAP analog 0.55/1 w/w
  dimer formation: 0.7%
[2]; particles from pH 6 solution with 10 mM histidine buffer vs no additives, 60° C. for two months
  decrease in aggregate formation: roughly 6 fold
[2]; particles lyophilized from stabilizing solution of apparent pH 2 (diluted HCl), no excipient
  dimer formation: 1.1%
[2]; particles prepared at pH 6 with sucrose (7.3 molar equivalent), 60° C. for two months
  improvement in preventing aggregate formation: ~6 fold
[2]; particles prepared at pH 6 with trehalose (7.3 molar equivalent), 60° C. for two months
  improvement in preventing aggregate formation: ~4 fold
[3]; further incubated at 37° C. an additional 17 days
  stability of PACAP suspensions: marginal stability loss
[3]; further incubated at 65° C. an additional 17 days
  stability of PACAP suspensions: relatively more aggressive degradation
[3]; unprotected lyophilized PACAP, about 3%, in LL/GML/PVP, BA/PVP, EHL/PVP, PEG/PVP, 65° C. for four hours
  stability of PACAP suspension formulations: stable
[4]; [6]
  rate of total degradation at 60° C. relative to 40° C.: about 5 times
[4]; Example 3, NH4OAc buffer pH6, except particles with PACAP to sucrose weight ratio of 1/1
  rate of total degradation (RP HPLC) at 60° C. relative to 40° C.: about 5 times
[4]; PACAP analog contained within particles
  total rate of degradation at 60° C. relative to 40° C.: approximately five times higher
[4]; lyophilized PACAP without a stabilizer, at 4° C.
  time stable: at least 3 months
[4]; lyophilized PACAP, apparent pH 6.4 in ammonium acetate, equal amount of sucrose (w/w), in 6 months at 40° C.
  estimated total degradation: 8.4%
[5]; [6]
  rate of aggregation at 60° C. relative to 40° C.: approximately 10 times
[5]; Example 3, NH4OAc buffer pH6, sucrose 0, 0.5/1, 1/1, all formulations tested
  rate of aggregation (SEC) at 60° C. relative to 40° C.: 10 times
[5]; PACAP suspensions in BA/PVP and LL/GML/PVP, 40° C.
  effect of sucrose on aggregate formation in suspensions: suppressed aggregate formation
[5]; [7]
  effect of Tween 80 on aggregation: no added effect
  effect of sucrose on aggregation: suppressed PACAP aggregation
[5]; lyophilized formulations, 40° and 60° C. over 3 months
  effect of histidine and sodium succinate on aggregate formation: better stabilizers than ammonium acetate
[5]; solid-state PACAP particles
  rate of aggregation or dimerization at 60° C. relative to 40° C.: ten times higher
